Source: patent publication US5670316, “Diagnostic applications of double D-loop formation” (Daikin Industries, Ltd.)

Molecular target: RecA (UniProt P0A7G6 P0A7G6:2-353)
Test: EMSA; 2.4 mM ATPgammaS, 37 C 10 min; retardation increases over 0.137-13.7 uM RecA
Details: tags: wild-type, untagged; purified from overproducing strain JC12772 or purchased from Pharmacia; label: 32P 5'-end; both complementary strands, heat denatured
Protocol: RecA protein coating of probes was normally carried out in a standard 1× RecA coating reaction buffer (10× RecA reaction buffer: 100 mM Tris acetate (pH 7.5 at 37° C.), 20 mM magnesium acetate, 500 mM sodium acetate, 10 mM DTT and 50% glycerol (Cheng et al. 1988). All of the probes, whether double-stranded or single-stranded, were denatured before use by heating to 95°–100° C. for five minutes, placed on ice for one minute, and subjected in a Tomy centrifuge to centrifugation (10,000 rpm) at 0° C. for approximately 20 seconds. Denatured probes were added immediately to room temperature RecA coating reaction buffer mixed with ATPγS and diluent (double-distilled H_2O), as necessary.
Heat denatured ^32P-labeled double-stranded 121-mer and 159-mer DNA probes were reacted with RecA protein as described above. The final RecA-DNA reaction mixtures contained 2.4 mM ATPγS. RecA protein or RecA storage buffer was added to each of four reactions containing 0.01 μg of either denatured 121- or 159-mer DNA probe. The final concentration of RecA in each reaction was 0, 0.137, 1.37 or 13.7 μM in lanes 1 and 5, 2 and 6, 3 and 7 or 4 and 8, respectively (FIG. 3). All RecA/DNA probe coating reactions were performed in a final volume of 10 μl. RecA binding was initiated by incubating all the reactions at 37° C. for 10 min. […]

Sequence of RecA (P0A7G6 2-353, one chain of several): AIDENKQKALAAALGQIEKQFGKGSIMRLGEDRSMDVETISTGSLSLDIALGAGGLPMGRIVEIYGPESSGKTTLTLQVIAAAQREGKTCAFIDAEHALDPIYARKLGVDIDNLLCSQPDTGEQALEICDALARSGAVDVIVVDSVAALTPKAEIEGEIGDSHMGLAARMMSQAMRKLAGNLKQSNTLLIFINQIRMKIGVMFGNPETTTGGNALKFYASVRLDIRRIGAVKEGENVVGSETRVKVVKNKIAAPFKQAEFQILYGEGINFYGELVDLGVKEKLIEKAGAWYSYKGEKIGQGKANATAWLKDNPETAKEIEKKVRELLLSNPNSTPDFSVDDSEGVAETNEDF

B1: lambda 159-mer probe (7472-7630), heat denatured (ssDNA)
DNA: CTGCATACTGATGCACTTCACGCCACGCGGGATGAACCTGTGGCATTTGTGCTGCCGGGAACGGCGTTTCGTGTCTCTGCCGGTGTGGCAGCCGAAATGACAGAGCGCGGCCTGGCCAGAATGCAATAACGGGAGGCGCTGTGGCTGATTTCGATAACC
  binding result: binds
